Target: KirBac1.1 WT
Test: SEC

Substance: KirBac1.1 WT (natural protein)
- stoichiometry N: 4

From article PMC4833211
